Measurements taken from patent US20180362585A1 (Bicycle, published 2018).
Numbered stars: 1 amine (or outer) side, 2 acyl side, 3 side chain; on linkers, the order of the positions; unused ones are H or OH. Bridge positions count the residues as written; N and C are the ends. Square brackets hold non-standard residues; d marks the D form. Ends that are not written are not given here. TBMB = c1c(C[*:1])cc(C[*:3])cc1C[*:2]; Sar = CNCC(=O)O

Assays:
[1] = molecular target: T1, human plasma Kallikrein (human, UniProt P03952 20-638); test: enzyme inhibition
T1 construct: also called hPK; human PK
T1 sequence (P03952 20-638 limits assumed): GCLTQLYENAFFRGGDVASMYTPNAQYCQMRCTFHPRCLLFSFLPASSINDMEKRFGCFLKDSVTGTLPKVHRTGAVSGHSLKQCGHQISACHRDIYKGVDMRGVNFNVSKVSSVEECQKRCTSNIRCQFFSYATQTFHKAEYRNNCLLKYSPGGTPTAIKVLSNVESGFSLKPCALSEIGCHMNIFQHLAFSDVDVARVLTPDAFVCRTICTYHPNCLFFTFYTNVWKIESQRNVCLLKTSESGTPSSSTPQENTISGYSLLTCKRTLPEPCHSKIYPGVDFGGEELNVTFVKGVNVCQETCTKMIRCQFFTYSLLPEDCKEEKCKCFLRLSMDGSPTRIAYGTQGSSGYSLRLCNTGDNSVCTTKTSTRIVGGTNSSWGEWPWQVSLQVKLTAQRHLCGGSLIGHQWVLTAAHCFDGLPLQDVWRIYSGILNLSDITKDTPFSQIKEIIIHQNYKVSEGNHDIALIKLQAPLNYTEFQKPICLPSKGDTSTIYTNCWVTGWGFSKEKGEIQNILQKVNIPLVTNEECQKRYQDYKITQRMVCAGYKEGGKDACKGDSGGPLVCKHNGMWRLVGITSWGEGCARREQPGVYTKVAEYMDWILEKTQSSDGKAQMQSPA
Description: (§1) Functional enzyme assays were conducted in 10 mM Tris HCl, 150 mM NaCl, 10 mM MgCl2, 1 mM CaCl₂) and 1 mg/mL BSA (all Sigma UK) pH7.4 at 25° C. in solid black 96 well plates. […] Release of AMC was measured using a Pherastar FS (BMG Labtech), excitation 360 nm, emission 460 nm. The rate of the linear phase of the reaction, typically 5 to 45 minutes, was calculated in MARS data analysis software (BMG labtech). The rate was then used to calculate the IC50 and Ki in Prism (GraphPad).

[2] = molecular target: T1, human plasma Kallikrein; test: phage binding assay
Description: Library transformant colonies, or selection output colonies, were picked and grown as individual cultures in 2TY broth containing selective antibiotic. The picked colonies were DNA-sequenced using a QIAgen PyroMark Q96 DNA sequencer to reveal the amino-acid substitution present in each clone, and were assayed for human plasma Kallikrein binding as follows. The phage-containing supernatant was harvested from the culture and phage were cyclised with tris bromomethyl benzene (TBMB) based on the methods of Heinis et al (Nature Chemical Biology vol. 5 pp 502-507 (2009)). The purified phage from this process were assayed for binding to biotinylated human plasma Kallikrein using a homogeneous plate-based binding assay; assay read-out measured on a BMG Labtech Pherastar FS plate reader. The quantitative binding data from duplicate assay samples was averaged (mean) and expressed as signal:background. […] The assay data was correlated with the peptide sequences.
Selections against human plasma Kallikrein were performed at a variety of stringencies (see Phage selections' in Methods above). All output sequences were identified and analysed for target binding (see ‘Randomisation of peptide domains—Assay of binding of individual clones’ in Methods above). Table 17 lists each unique sequence, its relative abundance in the selection output (frequency), and a rank number according to target binding strength.

[3] = molecular target: T2, rat plasma Kallikrein (rat, UniProt P14272 391-638, limits assumed); test: enzyme inhibition
T2 construct: domain: catalytic domain; also called rPK; rat PK
T2 sequence (P14272 391-638 limits assumed): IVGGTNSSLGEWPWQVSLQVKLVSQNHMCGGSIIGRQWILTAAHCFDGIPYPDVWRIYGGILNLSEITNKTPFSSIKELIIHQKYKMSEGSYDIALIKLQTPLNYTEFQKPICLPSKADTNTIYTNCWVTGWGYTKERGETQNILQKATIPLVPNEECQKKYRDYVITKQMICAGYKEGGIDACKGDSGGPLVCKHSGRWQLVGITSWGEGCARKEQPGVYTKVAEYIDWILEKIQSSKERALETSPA
Description: as §1

[4] = molecular target: T1, human plasma Kallikrein; test: phage binding assay; remark: listed apart in the source

Binder | Ki [1] [nM] | RANK (Kallikrein binding) [2] | further results
ACNWPYRCLHTDLCA (linker 2-8-14 via TBMB; not fully specified (N-terminus, C-terminus)) [06-157] | 3.3 | – | –
ACAWPARCAHQDLCA (linker 2-8-14 via TBMB; not fully specified (N-terminus, C-terminus), also called R1A/V6A) [06-34-03 - Ala1,6] | 0.147 | – | –
ACSWPYRCLHQDYCA (linker 2-8-14 via TBMB; not fully specified (N-terminus, C-terminus)) [06-61] | 5.8 | – | –
ACAWPAKCLTRELCA (linker 2-8-14 via TBMB; not fully specified (N-terminus, C-terminus)) [1B1] | 8.1 | – | –
ACRWPARCLTTSLCA (linker 2-8-14 via TBMB; not fully specified (N-terminus, C-terminus)) [06-59] | 0.5 | – | –
CSHRRWCTHQDLC (linker 1-7-13 via TBMB (inferred), on phage) | – | 41 | –
ACSWPARCVHQDLCA (linker 2-8-14 via TBMB; not fully specified (N-terminus, C-terminus)) [06-34-01] | – | – | IC50 [1]: 0.15 nM; IC50 [3]: 6.12 nM
ACSWPARCNHQDLCA (linker 2-8-14 via TBMB; not fully specified (N-terminus, C-terminus)) [06-57] | 0.4 | – | –
ACSWPARCTHQDLCA (linker 2-8-14 via TBMB; not fully specified (N-terminus, C-terminus)) [06-34-03 (01 + 02)] | – | – | IC50 [1]: 0.082 nM; IC50 [3]: 0.87 nM
ACRWPARCTHQDLCA (linker 2-8-14 via TBMB; not fully specified (N-terminus, C-terminus)) [06-34-02] | – | – | IC50 [1]: 0.16 nM; IC50 [3]: 1.09 nM
CSWPARCTHQDLC (linker 1-7-13 via TBMB, on phage) | – | 1 | BINDING ASSAY SIGNAL [4]: 110
CSWLARCTHQDLC (linker 1-7-13 via TBMB, on phage) | – | 4 | –
CSMPYRCTHQDLC (linker 1-7-13 via TBMB, on phage) | – | 31 | –
CSWPSRCTHQDLC (linker 1-7-13 via TBMB, on phage) | – | 2 | –
CSWHARCTHQDLC (linker 1-7-13 via TBMB, on phage) | – | 24 | –
CSWPYRCTHQDLC (linker 1-7-13 via TBMB, on phage) | – | 10 | –
CSYPFRCTHQDLC (linker 1-7-13 via TBMB, on phage) | – | 21 | –
CSWPFRCTHQDLC (linker 1-7-13 via TBMB, on phage) | – | 14 | –
CSWPYKCTHQDLC (linker 1-7-13 via TBMB, on phage) | – | 28 | –
CSIPFKCTHQDLC (linker 1-7-13 via TBMB (inferred), on phage) | – | 32 | –
CSWAARCTHQDLC (linker 1-7-13 via TBMB, on phage) | – | 7 | –

Binder | Ki [1] [nM] | RANK (Kallikrein binding) [2] | further results
CSYPIRCTHQDLC (linker 1-7-13 via TBMB, on phage) | – | 18 | –
CSHPYRCTHQDLC (linker 1-7-13 via TBMB (inferred), on phage) | – | 8 | –
CSWWARCTHQDLC (linker 1-7-13 via TBMB, on phage) | – | 27 | –
CSHPFRCTHQDLC (linker 1-7-13 via TBMB (inferred), on phage) | – | 9 | –
CSWSYRCTHQDLC (linker 1-7-13 via TBMB, on phage) | – | 36 | –
CSYPWRCTHQDLC (linker 1-7-13 via TBMB, on phage) | – | 33 | –
CSFSYKCTHQDLC (linker 1-7-13 via TBMB (inferred), on phage) | – | 35 | –
CSLPIRCTHQDLC (linker 1-7-13 via TBMB, on phage) | – | 30 | –
CSYPYRCTHQDLC (linker 1-7-13 via TBMB, on phage) | – | 26 | –
CSWQARCTHQDLC (linker 1-7-13 via TBMB, on phage) | – | 42 | –
CSWSARCTHQDLC (linker 1-7-13 via TBMB, on phage) | – | 19 | –
ACGVPYRCTHQEMCA (linker 2-8-14 via TBMB; not fully specified (N-terminus, C-terminus)) [06-64 T] | 6.9 | – | –
ACADPWACLFRRPCA (linker 2-8-14 via TBMB; not fully specified (N-terminus, C-terminus)) [06-63 T] | 1280 | – | –
ACTYPYKCLHQNLCA (linker 2-8-14 via TBMB) [2A10] | 4.98 | – | –
CSLFDHCTHQDLC (linker 1-7-13 via TBMB, on phage) | – | 40 | –
AC[Sar]WPARC[Sar]HQDLCA (linker 2-8-14 via TBMB; not fully specified (N-terminus, C-terminus), also called AC(N-MeG)WPARC(N-MeG)HQDLCA) [06-34-03 - N-MeGly1,6] | 24.8 | – | –
ACGGYNNCRAFSYCA (linker 2-8-14 via TBMB; not fully specified (N-terminus, C-terminus)) [1F7] | 2.2 | – | –
ACRWPARCTHQNYCA (linker 2-8-14 via TBMB; not fully specified (N-terminus, C-terminus)) [06-54 (2A2) T] | 0.49 | – | –
ACTWPARCTHQNWCA (linker 2-8-14 via TBMB; not fully specified (N-terminus, C-terminus)) [06-09] | 1.2 | – | –
ACTWPARCTMQNWCA (linker 2-8-14 via TBMB; not fully specified (N-terminus, C-terminus)) [06-A2*] | 181 | – | –
CSQVVGCTHQDLC (linker 1-7-13 via TBMB, on phage) | – | 38 | –
